Here are results for 9 molecules from patent US20240294650A1 (Alector, published 2024).

The target in one experiment is T1, human MerTK (human, UniProt Q12866 21-999).
T1 sequence: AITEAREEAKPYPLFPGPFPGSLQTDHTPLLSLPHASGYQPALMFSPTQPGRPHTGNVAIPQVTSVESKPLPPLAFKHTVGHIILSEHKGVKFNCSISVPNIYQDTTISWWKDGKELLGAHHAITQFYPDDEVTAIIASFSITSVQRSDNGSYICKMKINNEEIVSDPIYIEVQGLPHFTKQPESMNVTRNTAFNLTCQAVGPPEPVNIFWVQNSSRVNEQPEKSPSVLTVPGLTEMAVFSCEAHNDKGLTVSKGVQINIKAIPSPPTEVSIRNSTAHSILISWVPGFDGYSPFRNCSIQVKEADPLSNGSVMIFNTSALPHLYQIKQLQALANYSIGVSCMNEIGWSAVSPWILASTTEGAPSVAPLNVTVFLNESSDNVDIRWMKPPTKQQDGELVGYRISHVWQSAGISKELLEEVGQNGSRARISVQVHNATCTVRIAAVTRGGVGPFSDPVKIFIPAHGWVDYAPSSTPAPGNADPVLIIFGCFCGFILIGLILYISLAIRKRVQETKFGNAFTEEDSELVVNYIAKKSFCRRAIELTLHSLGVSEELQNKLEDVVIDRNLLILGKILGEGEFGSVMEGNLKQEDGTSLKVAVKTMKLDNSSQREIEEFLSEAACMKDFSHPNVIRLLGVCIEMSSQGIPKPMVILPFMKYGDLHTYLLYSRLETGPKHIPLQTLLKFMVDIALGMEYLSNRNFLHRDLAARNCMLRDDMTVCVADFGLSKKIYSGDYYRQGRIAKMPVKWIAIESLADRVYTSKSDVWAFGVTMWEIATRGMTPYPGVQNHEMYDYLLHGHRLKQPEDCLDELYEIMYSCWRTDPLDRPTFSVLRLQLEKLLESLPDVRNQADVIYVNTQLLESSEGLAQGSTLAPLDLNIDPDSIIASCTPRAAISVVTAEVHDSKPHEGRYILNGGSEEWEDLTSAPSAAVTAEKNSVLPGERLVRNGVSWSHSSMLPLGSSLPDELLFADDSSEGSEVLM
In words: cell-based or functional assay.

Experiment [1] addresses T2, Full Axl (ECD domain of human Axl) (human, UniProt P30530 26-451).
T2 construct: also called human Axl ECD
T2 sequence: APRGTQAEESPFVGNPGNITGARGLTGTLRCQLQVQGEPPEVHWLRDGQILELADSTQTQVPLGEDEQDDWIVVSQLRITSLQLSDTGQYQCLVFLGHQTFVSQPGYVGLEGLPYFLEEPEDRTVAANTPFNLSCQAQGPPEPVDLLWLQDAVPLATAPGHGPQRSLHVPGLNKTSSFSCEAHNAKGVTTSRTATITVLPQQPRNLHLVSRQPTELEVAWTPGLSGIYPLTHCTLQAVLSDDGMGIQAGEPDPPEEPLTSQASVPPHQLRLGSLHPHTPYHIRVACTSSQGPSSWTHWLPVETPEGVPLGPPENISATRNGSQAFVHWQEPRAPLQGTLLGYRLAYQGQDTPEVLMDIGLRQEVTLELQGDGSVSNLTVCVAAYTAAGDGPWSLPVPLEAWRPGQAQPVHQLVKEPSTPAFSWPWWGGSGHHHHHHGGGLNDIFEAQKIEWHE
The experiment in a line: SPR (data not shown). In a few lines:
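Read-out is loss of binding to MerTK deletion or Axl-swap constructs, or gain of binding to Axl constructs carrying MerTK domains, mapped to human MerTK domains. Antibodies sat on the chip by amine coupling; diluted supernatants flowed over them.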

Experiment [2] deals with T3, Recombinant human MerTK-human Fc Chimera protein (human, UniProt Q12866 26-499, limits assumed).
T3 construct: bought construct; also called MerTK-Fc (R&D systems, Cat #391-MR-100)
T3 sequence: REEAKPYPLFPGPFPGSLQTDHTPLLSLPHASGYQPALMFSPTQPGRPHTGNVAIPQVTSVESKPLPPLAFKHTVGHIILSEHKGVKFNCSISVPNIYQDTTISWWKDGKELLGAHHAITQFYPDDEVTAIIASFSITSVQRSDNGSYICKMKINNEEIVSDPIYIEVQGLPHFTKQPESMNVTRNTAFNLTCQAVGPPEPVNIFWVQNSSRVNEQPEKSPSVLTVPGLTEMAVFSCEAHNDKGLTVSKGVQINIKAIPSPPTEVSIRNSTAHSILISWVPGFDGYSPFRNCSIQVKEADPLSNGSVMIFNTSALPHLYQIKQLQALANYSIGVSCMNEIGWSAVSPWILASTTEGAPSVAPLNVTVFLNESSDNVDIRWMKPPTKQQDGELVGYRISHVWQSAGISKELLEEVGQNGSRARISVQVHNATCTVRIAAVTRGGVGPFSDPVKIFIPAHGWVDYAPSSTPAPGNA
In words: blocking ELISA, ProS-His on MerTK-Fc, Ab 66.6 nM, isotype=100%. The method, then:
Briefly, rabbit anti-human IgG antibody (Jackson ImmunoResearch, Cat #309-005-008) was coated at 2 μg/ml onto high-protein binding plates at 4° C. overnight. After washing with 0.05% Tween20 in PBS three times, 5% BSA in PBS was added for 1 hour. Recombinant human MerTK-human Fe Chimera protein (R&D systems, Cat #391-MR-100) was added at 2 μg/ml for 1 hour and plates were washed before the addition of 40 μl of anti-MerTK hybridoma supernatants and 40 μl of His tag-conjugated recombinant Gas6 (R&D systems, Cat #885-GSB-050) at 3 μg/ml or His tag-conjugated recombinant ProS (R&D systems, Cat #9489-PS-100) at 20 μg/ml. After a further incubation for 1 hour, plates were washed and incubated for 1 hour with HRP-conjugated anti-6×His tagged antibody (Abcam, Cambridge, MA, Cat #ab1187). Plates were then washed and an HRP substrate, TMB, was added to develop the plates. The reaction was stopped by adding 50 μl 2N H₂SO₄ and the OD was measured using a spectrophotometer (BioTek).
Anti-MerTK antibodies were titrated to a final concentration from 66.6 nM to 4 pM and tested against anti-human MerTK antibody M6 (disclosed in WO2016/106221) or isotype control antibody.

B1: MTK-202 (antibody, human IgG1, V domains shown)
VH: EVQLVESGGGLVKPGGSLKLSCAASGFTFSDFGMHWVRQVPEKGLEWVAFISGGSNTIYYTDTVKGRFTISRDNAKNTLFLQMTSLRSEDTAMYYCVRNGNSFAYWGQGTLVTVSA
VL: NIMMTQSPSSLAVSAGEKVTMNCKSSQSVLYSSNQKNYLAWYQQKPGQSPKLLIYWASTRESGVPDRFTGSGSGTDFTLTISNIQAEDLAIYYCHQYFFSWTFGGGTKLEIK
Consider B1, for which, in the experiment with human MerTK, the “EC50 (nM), pAKT in SK-MEL-5 cells” value was 1.01 nM and the “Fold increase in PAKT over IgG control” value was 3 fold. In addition, the binding result in experiment [1] is “no binding”. Besides, the “Percent ProS ligand binding” value in experiment [2] came out at 53.4%.

B2: MTK-204 (antibody, human IgG1, V domains shown)
VH: EVQLVESGGGLVKPGGSLKLSCAASGFTFSDYGMHWVRQAPEKGLEWVAYISSGTSTIYYEDTVKGRFTISRDNAKNTLFLQMTSLRSEDTAMYYCARGGLLFDYWGQGTTLTVSS
VL: NIMMTQSPSSLAVSAGEKVTMSCKSSQSVLYSSNQKNYLAWYQQKPGQSPKLLIQWASTRESGVPDRFTGSGSETDFTLTIRSVQAEDLAVYYCHQYFSSWTFGGGTKLEIK
Regarding B2, the “Fold increase in PAKT over IgG control” value with human MerTK is 3 fold. The binding result in experiment [1] is given as “no binding”. In addition, the “Percent ProS ligand binding” value in experiment [2] stood at 101%.

B3: MTK-210 (antibody, human IgG1, V domains shown)
VH: QVQLQQSGPELVKPGASVKISCKASDYEFSRSWMNWVKQRPGKGLEWIGRIYPGDGDTNYNGKFKGKATLTADKSSNTAYMQLNSLTSEDSAVYFCARKGGYYYSISNYFDYWGQGTTLTVSS
VL: QIVLTQSPAIMSASPGVKVTMTCSASSSVSYMHWYQQKPGSSPRLLIYDTSNLASGVPVRFSGSGSGTSYSLTISRMEAEDAATYYCQQWSSYPPYTFGGGTKLEIK
On to B3, for which, in the experiment with human MerTK, the “EC50 (nM), pAKT in SK-MEL-5 cells” value amounted to 15 nM and the “Fold increase in PAKT over IgG control” value stood at 3.3 fold. Further, in experiment [1], the binding result is given as “no binding”. Besides, the “Percent ProS ligand binding” value in experiment [2] amounted to 116%.

B4: MTK-231 (antibody, human IgG1, V domains shown)
VH: DVQLQESGPGLVKPSQSLSLTCSVTGYSITSGYYWNWIRQFPGNKLEWMGYISYDGTYNYHPSLKNRISITRDTSKNQFFLTLNSVTTEDTATFYCTRGGGYWGQGTSVTVSS
VL: DVVMTQTPLSLPVSLGDQASISCRSSQSLVHSDGNTYLHWYLQKPGQSPKLLIYKVSNRFSGVPDRFSGSGSGTDFTLKISRLEAEDLGIYFCSQTTHIPLTFGSGTKLEIK
On to B4, for which, in the experiment with human MerTK, the “EC50 (nM), pAKT in SK-MEL-5 cells” value is 0.65 nM and the “Fold increase in PAKT over IgG control” value was found to be 3 fold. Also, the binding result in experiment [1] is listed as “no binding”. In addition, the “Percent ProS ligand binding” value in experiment [2] amounted to 152%.

B5: MTK-221 (antibody, human IgG1, V domains shown)
VH: QVTLKESGPGMLQSSQTLSLTCSFSGFSLSTSGMGVSWIRQPSGKGLEWLAHIYWDDDKRYNTSLQSRLTISKDTSRNQVFLKITSVDTADTATYFCGRLGAYSAFPYYFDYWGQGTTLTVSS
VL: DIQMTQSPSSLSASLGGKVTITCKASQDIHKHIAWYQHKPGKGPRLLIHYTSTLQPGIPSRFSGSGSGRDYSFSISNLEPEDLATYYCLQYDNLWTFGGGTKLEIK
Turning to B5, in the experiment with human MerTK, the “Fold increase in PAKT over IgG control” value stood at 4.4 fold. Besides, the binding result in experiment [1] is recorded as “no binding”. Besides, the “Percent ProS ligand binding” value in experiment [2] worked out at 72.8%.

B6: MTK-212 (antibody, human IgG1, V domains shown)
VH: QVQLQQSGPELVKPGASVKISCKASGYAFSSSWVNWVKQRPGKGLEWIGRIYPGDGDSNYNGNFKGKATLTADKSSNTAYLQLSSLTSEDSAVYFCARKSHFIYYTLDYWGQGTPVTVSS
VL: DIVMTQSHKFKSTSVGDRVSIACKASQDVGTSVAWYQQKPGKSPKLLIYWASSRHTGVPDRFTGSGSGTDFTLTISNVQSEDLTDYFCQQYSTYPYTFGGGTKLEIK
With B6, in the experiment with human MerTK, the “EC50 (nM), pAKT in SK-MEL-5 cells” value came to 96.9 nM and the “Fold increase in PAKT over IgG control” value worked out at 3.3 fold. In experiment [1], the binding result is on record as “no binding”. In addition, the “Percent ProS ligand binding” value in experiment [2] is 45.8%.

B7: MTK-222 (antibody, human IgG1, V domains shown)
VH: QVQLQQSGADLMKPGASVKLSCKATGYTFTGYWIEWVKQRPGHGLEWIGEILTGSGSSNYNEKFKGKATFTADSSSNTAFMQLSSLTTEDSAIYYCAGSYYSNSWFPYWGQGSLVTVSA
VL: DIVLTQSPVSLAVSLGQRATISCRASESVDSYGSSFMHWYQQKPGQPPKLLIYRASSLESGIPARFSGSGSRTDFTLTINPVETDDVATYYCQQSNEDPRTFGGGTKLEIK
Regarding B7, the “Fold increase in PAKT over IgG control” value with human MerTK turned out to be 4.6 fold. Moreover, the binding result in experiment [1] is listed as “no binding”. Also, the “Percent ProS ligand binding” value in experiment [2] is 88.2%.

B8: MTK-225 (antibody, human IgG1, V domains shown)
VH: EVQLQQSGPELVKPGASVKIFCKASGYTFTAYNMDWVKQSHGKSLEWIGDINPNNGGTIYNQKFKGKATLTVDKSSSTAYMELRSLTSEDTAVYYCARRRRYGNTYYWYFDVWGTGTTVTVSS
VL: DIQMTQSPASLSVSVGETVTITCRASENIYSSLAWYQQKQGKSPQLLVYAATNLADGVPSRFSGSGSGTQFYLKINGLQSEDFGSYYCQHFWGTSYTFGGGTKLEIK
B8: the “Fold increase in PAKT over IgG control” value in the experiment with human MerTK stood at 4.5 fold. In addition, the binding result in experiment [1] is recorded as “no binding”. Further, the “Percent ProS ligand binding” value in experiment [2] was 186%.

B9: MTK-206 (antibody, human IgG1, V domains shown)
VH: QVQLQQSGAELARPGASVKMSCKASGYTFTSYTMHWVKQRPGQGLEWIGYINPSSGYIKNSQKFKDKATLTADKSSSTAYMQLSSLTSEDSAVYYCARTVYGYYGSSPDYWGQGTTLTVSS
VL: DIQMTQSPSSLSASLGERVSLTCRASQDIGSNLNWLQQEPDGTIKRLIYATSSLESGVPKRFSGSRSGSDYSLTISSLESEDFVDYYCLQYDSSPWTFGGGTKLEIK
Turning to B9, the “Fold increase in PAKT over IgG control” value with human MerTK stood at 3.1 fold. For the same molecule, in experiment [1], the binding result was “no binding”. In addition, the “Percent ProS ligand binding” value in experiment [2] was found to be 132%.
